Read-outs that look alike come from different tables or passages of the source.
How the values were obtained:
[1] = molecular target: biotinylated human FcRn (human) (UniProt P55899); experiment: FcRn binding ELISA at pH 7: biotinylated human FcRn on neutravidin, anti-human IgG-Fc-HRP
[2] = molecular target: biotinylated human FcRn (human) (UniProt P55899); experiment: as above; remark: listed apart in the source
[3] = molecular target: biotinylated human FcRn (human) (UniProt P55899); experiment: competition ELISA at pH 6: biotinylated human FcRn on neutravidin, competitor recombinant hIgG3 (m8), bound IgG3 detected
[4] = molecular target: biotinylated human FcRn (human) (UniProt P55899); experiment: as above; remark: listed apart in the source
[5] = molecular target: biotinylated human FcRn (human) (UniProt P55899); experiment: FcRn binding ELISA at pH 6: biotinylated human FcRn on neutravidin, anti-human IgG-Fc-HRP
[6] = molecular target: biotinylated human FcRn (human) (UniProt P55899); experiment: competition ELISA at pH 6: biotinylated human FcRn on neutravidin, competitor recombinant hIgG3 (m8), bound IgG3 detected; remark: listed apart in the source
[7] = molecular target: biotinylated human FcRn (human) (UniProt P55899); experiment: FcRn binding ELISA at pH 6: biotinylated human FcRn on neutravidin, anti-human IgG-Fc-HRP; remark: listed apart in the source
[8] = molecular target: human IgE pre-bound on human basophils (human) (UniProt P01854); experiment: cell-based or functional assay

biotinylated human FcRn (human), sequence (P55899 24-297 limits assumed, chain 1 of 2): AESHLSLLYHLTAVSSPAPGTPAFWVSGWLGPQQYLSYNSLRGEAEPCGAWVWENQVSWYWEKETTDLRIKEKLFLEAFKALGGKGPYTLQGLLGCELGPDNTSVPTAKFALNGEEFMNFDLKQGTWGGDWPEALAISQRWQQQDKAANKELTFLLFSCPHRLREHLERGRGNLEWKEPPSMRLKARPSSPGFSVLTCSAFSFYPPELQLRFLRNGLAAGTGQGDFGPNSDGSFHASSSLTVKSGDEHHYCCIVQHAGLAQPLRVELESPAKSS
biotinylated human FcRn (human), sequence (chain, as listed by the source limits assumed, chain 2 of 2): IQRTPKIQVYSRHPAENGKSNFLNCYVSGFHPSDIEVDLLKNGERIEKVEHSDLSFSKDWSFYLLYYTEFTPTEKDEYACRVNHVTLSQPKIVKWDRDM

## Efgartigimod
[1]
  EC50 (read off the curve): 0.02 nM
[2]
  EC50 (read off the curve): 0.09 nM
[3]
  IC50 (read off the curve): 0.6 nM
[4]
  IC50 (read off the curve): 0.9 nM
[5]
  EC50 (read off the curve): 0.06 nM
[6]
  IC50 (read off the curve): 0.7 nM
[7]
  EC50 (read off the curve): 0.05 nM

## Irrelevant antibody
[8]
  % of activated basophils (CCR3+CD63+): 3%

— patent US20220177604A1
